Data published in PMC2629775.

Columns and labels:
[1] = molecular target: Mycobacterium leprae small heat shock protein (sHsp18) (Mycobacterium leprae); assay: SEC; as a1 but after extended dialysis against PBS; data not shown
[2] = molecular target: Mycobacterium leprae small heat shock protein (sHsp18) (Mycobacterium leprae); assay: native gel or EMSA; non-denaturing 7.5% polyacrylamide gel of MagneHis-purified sHsp18, against high molecular weight markers, Coomassie stain
[3] = molecular target: Mycobacterium leprae small heat shock protein (sHsp18) (Mycobacterium leprae); assay: SEC; Sephacryl column; sHsp18 purified by denaturing method, dialysed against 50 mM PBS with 200 mM NaCl, pH 7.2, 4°C, 6 hrs, acetone precipitated, resuspended in PBS

stoichiometry N [1]: 9
stoichiometry N [2]: 9
stoichiometry N [3]: 6
Substance: Mycobacterium leprae small heat shock protein (sHsp18) (natural protein)
